T1: thymidine monophosphate kinase (TMK) (Escherichia coli, UniProt P0A720)
T1 sequence (P0A720 1-213): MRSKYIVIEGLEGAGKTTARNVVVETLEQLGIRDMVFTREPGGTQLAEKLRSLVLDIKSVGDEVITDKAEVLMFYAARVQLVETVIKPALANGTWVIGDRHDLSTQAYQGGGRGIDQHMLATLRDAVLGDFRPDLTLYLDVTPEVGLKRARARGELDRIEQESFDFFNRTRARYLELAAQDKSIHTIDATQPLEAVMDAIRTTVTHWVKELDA

B1: RavNMT (TDP-3-amino-3,6-dideoxy-D-galactose-N,N-dimethyltransferase) (enzyme, Streptomyces ravidus, UniProt D1H0I7 1-265, looked up)
chain: MSTLSVSQPGTPPTPADVEQAYGAEHADVYDAIYRGRGRDYAAEADAFLAVLRTRRPEITSLLDVACGTGAHLAALRGSVDHVEGVELSPWMHTLATRQLPGVAVHQDDMRSFNLSRRFSAVTCLFSSVGYLKSVEDLRRTLRTFRAHVAPGGVALVEPWWFPETFLDGYVGSSLVEVDGRTIARVSHTVRAGSTSRMTVEYTVAEPVNGVRRFSDLHVLSLFTREQYEDAFERAGFAVEFLKDGPSGRGLFLGVAPETTDGGPR
B2: RavAMT (TDP-3-keto-6-deoxy-D-galactose-3-aminotransferase) (enzyme, Streptomyces ravidus, UniProt D1H0I5 1-369, looked up)
chain: MKVPYLDLKGPHTEIRAELDAAYHRVVDSGWFVLGEEVRAFEEEYAAYCGAAHCVSVATGCDALELALRALDIGPGDEVVVPSATYIATWLAVSETGADVVPVEVDPDTHLLDPAAVEAAVTPATRAVMPVHLYGQPADLPALRRVADRHGLALIDDAAQAHGARLNGTRVGGGGLATATAFSFYPGKNLGALGDGGGILTDDAELAERLRLLRNYGSRRKYHHELKSTNSRLDELHAAVLRAKLPHLDRWNARRAEIAERYRAAFADLPGLRPTAVPEGAEPSWHLYVVCCDDRDAVQRSLTDAGVGTLIHYPVPVHLSPAYADEKRWPAGAFPRAEAIAAQVLSLPMGPHLSDADVSYVIEAVRAAV
B3: RavIM (TDP-4-keto-6-deoxy-D-glucose-3,4-ketoisomerase) (enzyme, Streptomyces ravidus, UniProt D1H0I6 1-156, looked up)
chain: MTDTTAATGTTAGTDVSRVGKVRPCALMKLQTIGDPRGQLAVVEGAKDIGFPVKRLFYLYDLPTSSVRGDHAHRNLEQFVIPINGSFDVAVDDTVDTAVCRLDDPGQGLYIGPMVWNSLVNFSEGAIALVLASEHYDEADYYRRYDEFLADAGARP

Tests used:
[1] = molecular target: T1, thymidine monophosphate kinase (TMK); assay: coupled assay with ACK, HPLC; assay type: biochemical; conditions: phosphate donor; same
SEC = molecular target: the molecule itself; assay: SEC

Row | Molecule | coupled assay with ACK, HPLC [1] | stoichiometry N (SEC)
1 | Nc1ncnc2c1ncn2[C@@H]1O[C@H](COP(=O)(O)OP(=O)(O)OP(=O)(O)O)[C@@H](O)[C@H]1O [ATP] | ATP serves as a phosphate donor thereby converting into ADP | –
2 | B1 | – | 2
3 | B2 | – | 2
4 | B3 | – | 2

— PMC4482361 (Organic & biomolecular chemistry, 2011)
